This is an account of results in US8361965B2, “Recombinant chimeric protein of neutrophil inhibitory factor and hirugen, and pharmaceutical composition thereof” (Lunan Pharmaceutical Group Corporation, priority 2008, dated 2013).

For test [1], the system named is rabbit whole blood. Briefly: in vitro whole blood anticoagulation assay. Set-up: species or system white rabbit. Particulars: for Test results (blood coagulation): room temperature 15 min. As to the method: TNHH was diluted to 4 mg/ml, 2 mg/ml, 1 mg/ml, 0.5 mg/ml respectively with phosphate buffer solution (10 mmol/L PB, 0.15 mol/L NaCl, pH7.4). Heparin sodium was prepared to 1 mg/ml with the same buffer solution.
Venous blood was taken from marginal ear vein of the rabbit, and rapidly added into 0#-5# tubes. 0.2 ml of the diluted TNHH samples with different concentrations was added into the 1#-4# tubes, respectively. 0.2 ml phosphate buffer solution was added into the 0# tube, which was used as a negative control. 0.2 ml heparin sodium (1 mg/ml) was added into the 5# tube, which was used as a positive control. The reagents were mixed rapidly and stored at room temperature for 15 min for observing the results.

In test [2] the test system is experimental cerebral hematoma in rats. Briefly: effects on experimental cerebral hematoma in rats. Particulars: 2 mg/kg bid caudal vein; for behavioral score: full score 11. Set-up: key to behavioral score: neurologic defect score, full score 11; higher = more severe disorder. It is filed as in vivo, SD rats. How it is done: SD rats were randomly divided into 4 groups (8 animals per group), including model group, NHH group, NIF group and TNHH group. The rats in each group were anesthetized by chloral hydrate, and then 0.1 ml blood was collected by amputation of tail. The rats were fixed in a stereotaxic apparatus. Median incision of scalp was performed and the periosteum was cut open to expose bregma. Subsequently, a small hole with a diameter of 1 mm was perforated for needle insertion of microsyringe fixed on the stereotaxic apparatus with insertion depth of 5.8 mm (i.e to the position of caudate nucleus) at the site which was 1 mm rearward to the bregma and 3 mm left to the midline, and then 0.1 ml autoblood was injected slowly. Neurological functional defect score was immediately evaluated based on the evaluation criterion after the animal got conscious. The animal with behavior score less than 11 was selected in this study. Behavior score evaluation was continuously carried out after the establishment of model till the end of the experiment.
The neurologic function defect score was evaluated at 5 time points of 4 h, 12 h, 24 h, 48 h and 72 h after the model establishment. Changes of brain water content and histopathological observation were performed at 72 h after the model establishment on sacrificed rats.
Corresponding medicaments (2 mg/kg, bid) were administered through the caudal vein to animals with administration volume of 1 ml/100 g in each group after model animal was successfully established (according to the score less than 11 based on the behavior score evaluation), while the model group received physiological saline in the corresponding volume.
The brain was taken out immediately after the sacrifice of animals, and then […] ectocinerea (cortex was removed) at the edge of haematoma was collected. The brain water content was determined using dry and wet method based on the following formula: Brain water content=(wet weight−dry weight)/wet weight×100%
The brain was immediately taken out by decollation at selected time points, and it was sliced up to be 2 mm thick along the coronal section and then fixed in 10% formaldehyde. The slices were stained by regular HE and mounted. Then the pathological changes occurred in pathological region and the neighboring brain tissues were observed.
Evaluation was performed at the time of 4 h, 12 h, 24 h, 48 h and 72 h after surgery. The method was described as follows:
The flection of forelimbs was observed by lifting the rat by its tail. If the forelimbs symmetrically extended toward the floor, the score was 0. While if wrist flection, or elbow inflection, or internal rotation of shoulder, or both elbow inflection and internal rotation of shoulder occurred to forelimbs of the rat on the opposite side of the surgery part, it was evaluated as scores of 1, 2, 3 and 4, respectively.
The animal was placed on flat floor, and then both shoulders were pushed to move towards the opposite side to examine the resistance. If the resistances on both sides were equal and forceful, it was evaluated as 0. While if the resistance decreased slightly, mildly or severely when pushed to the opposite side of the surgery part, it was evaluated as 1, 2 or 3, respectively.
Both forelimbs of the animal were placed on a metal mesh to observe the muscular tension. The rat with equal and forceful muscular tension of both forelimbs was evaluated as 0. In the same way, the rat was evaluated as 1, 2 or 3, respectively with the reduction of muscular tension on the opposite side of the surgery part mentioned above.
The animal tended to keep turning around to one side was evaluated as 1. Based on the evaluation criterion (with full score of 11), the higher the score was evaluated, the more severe the behavior disorder was.

For test [3], the system named is blood coagulation system. Briefly: effects on blood coagulation system of New Zealand rabbits in vitro (APTT, PT, TT). Format: biochemical, New Zealand rabbit. Set-up: PT: unit not given beside the values; APTT / TT: unit not given here. How it is done: Medicaments were diluted to the following concentrations for use: TNHH: 3.0 mg/ml; 1.0 mg/ml; 333 μg/ml; bivalrudin: 600 μg/ml; 200 μg/ml; 67 μg/ml; Hirudin: 660 μg/ml; 220 μg/ml; 73 μg/ml.
The blood was sampled from six New Zealand rabbits (10×1.8 ml for each one) from marginal ear vein and added into 10 anticoagulation tubes, respectively. 3.2% sodium citrate (9:1) was added for anticoagulation.
20 μl anticoagulated blood was taken from each tube, followed by the addition of 20 μl above diluted medicaments for each tube. 20 μl physiological saline was added into the control tube. Samples were mixed thoroughly and centrifuged at 3000 rpm/min for 3 min, and plasma was send to Department of Clinical Laboratory, Southwest Hospital for determining blood coagulation indexes (APTT, TT and PT) with a full automatic coagulation analyzer and the difference before and after administration was obtained by comparison.

[4] abbreviates: TNHH 3.33 μg/ml in rabbit blood.
[5] abbreviates: TNHH 10.00 μg/ml in rabbit blood.
Where [6] appears, read: TNHH 30.00 μg/ml in rabbit blood.

B1: TNHH: recombinant chimeric protein of neutrophil inhibitory factor and hirugen, Met-NIF-GGGGG-FPRPGSGG-Hirugen (SEQ ID NO: 3), expressed in E. coli (protein)
chain: MNEHNLRCPQNGTEMPGFNDSIRLQFLAMHNGYRSKLALGHISITEESESDDDDDFGFLPDFAPRASKMRYLEYDCEAEKSAYMSARNCSDSSSPPEGYDENKYIFENSNNISEAALKAMISWAKEAFNLNKTKEGEGVLYRSNHDISNFANLAWDAREKFGCAVVNCPLGEIDDETNHDGETYATTIHVVCHYPKINKTEGQPIYKVGTPCDDCSEYTKKADNTTSADPVCIPDDGVCFIGSKADYDSKEFYRFRELGGGGGFPRPGSGGNGDFEEIPEEYL
modifications: N-terminal Met
For the molecule B1, the “Test results (blood coagulation)” value in test [1] (0.2 ml TNHH 0.5 mg/ml + 1.0 ml rabbit blood) is on record as “coagulated”; in test [1] (0.2 ml TNHH 1 mg/ml + 1.0 ml rabbit blood), “coag-”; in test [1] (0.2 ml TNHH 2 mg/ml + 1.0 ml rabbit blood), “coag-”; in test [1] (0.2 ml TNHH 4 mg/ml + 1.0 ml rabbit blood), “coag-”. Moreover, in test [1] (TNHH 0.5-4 mg/ml), the “whole blood anticoagulation effects in vitro” value was “no whole blood anticoagulation effects”. The blood coagulation entry in test [1] (different concentrations of TNHH (0.5-4 mg/ml)) was “coagulated”. The behavioral score in test [2] (4 h) was determined as 2.00 ± 1.07; in test [2] (12 h) it was 2.00 ± 0.76; in test [2] (24 h), 2.25 ± 0.46; in test [2] (48 h), 2.12 ± 0.64; in test [2] (72 h), 2.88 ± 1.46. Besides, the “Brain water content (%)” value in test [2] (72 h, dry and wet method) is recorded as 78.28 ± 1.97 %. Further, the APTT is recorded as 33.73 ± 6.35 in test [3] (setting [4]), 31.87 ± 4.46 in test [3] (setting [5]) and 38.08 ± 5.53 in test [3] (setting [6]). The values for the PT in test [3] (setting [4]), in test [3] (setting [5]) and in test [3] (setting [6]) were 7.08 ± 0.28, 7.15 ± 0.24 and 7.27 ± 0.38, respectively. Besides, the TT amounted to 17.13 ± 1.46 in test [3] (setting [4]), 20.43 ± 1.59 in test [3] (setting [5]) and 30.00 ± 4.81 in test [3] (setting [6]).
